# Values of other authors as cited in article PMC5979539 (International Journal of Molecular Sciences, 2018).
# System: PC membranes
# Conditions: cited from earlier work
# From the text: Despite the above-discussed limitations, we were able to determine the SPR binding parameters of PDC-109. Affinity constants (Table 4) indicated weak to moderate binding for carbohydrates, at least if compared to the considerably higher affinity (KA~10^7 M^−1) found for PC membranes.
molecule,measurement,value
"PDC-109: main protein of bovine seminal plasma, purified from bull seminal plasma; glycosylated and non-glycosylated forms (protein, mixture of the glycosylated (O-linked trisaccharide, Neu5Ac-Hex-HexNAc) and non-glycosylated forms) DQDEGVSTEPTQDGPAELPEDEECVFPFVYRNRKHFDCTVHGSLFPWCSLDADYVGRWKYCAQRDYAKCVFPFIYGGKKYETCTKIGSMWMSWCSLSPNYDKDRAWKYC",KA for PC membranes,~ 10^7 M^−1
